According to publication doi:10.1101/2023.04.17.537198, “Bitesize bundles F-actin and influences actin remodeling in syncytial Drosophila embryo development” (bioRxiv, 2025):

Tests used:
[1] = molecular target: T1, Rabbit skeletal muscle actin, polymerised (F-actin) (rabbit, UniProt P68135 1-377); assay: cell-based or functional assay
[2] = molecular target: T1, Rabbit skeletal muscle actin, …; assay: co-sedimentation; high-speed pelleting: 0.5 uM BtszB-CT with 0, 0.1, 0.25, 0.5, 1, 2, 4 uM F-actin, 30 min at room temperature, 316,000 x g for 20 min at 25°C; supernatant and pellet on Coomassie gels, densitometry; BtszB-CT pelleted without F-actin subtracted; fit to a Hill equation (cooperative binding model); conditions: both partners purified

TIRF microscopy bundling assay: filament/bundle fluorescence intensity at FWHM, normalised to the mean of the control reaction (2 uM F-actin), with 1 uM BtszB-CT [1]: 3.4 fold of the control reaction (2 uM F-actin)
Kd [2]: 450 nM
B1: C-terminal fragment of Bitesize isoform B (BtszB-CT) (domain or fragment)
chain: VKGQVEFAMQYNYKLSALEVHVVRCKDLAAVDAKRNRSDPYVKVYLLPDKSKAGKRKTKVKKHTLNPIFDETMRFHTPISSLESRTLWLTVWHSDMFGRNDFLGEVSVNLQGRLFDNPQSQWYLLQERSEPFDEVATYRGDIVVGLKYIPPENIKSSFFSRGSSITGSSSNLRKFGGSIKSVASKSERTSKGGQLHVLVKEAKHLSPIKANGTCDAFCKSYLLPDRTRSSKQKTPVVKRTLHPSWNYTFVYEDVSLEELSERALELTVWDHDRLASNEFVGGIRFSLGTGRSYGRQVEWMDATGKELSLWQNMLDRPNFWVEGSLVLRSSLDGIRANLP
